Assay results reported in article PMC6911170.

Target: T1, GST-Zc3h10 full length (UniProt Q8R205 1-435)
T1 sequence: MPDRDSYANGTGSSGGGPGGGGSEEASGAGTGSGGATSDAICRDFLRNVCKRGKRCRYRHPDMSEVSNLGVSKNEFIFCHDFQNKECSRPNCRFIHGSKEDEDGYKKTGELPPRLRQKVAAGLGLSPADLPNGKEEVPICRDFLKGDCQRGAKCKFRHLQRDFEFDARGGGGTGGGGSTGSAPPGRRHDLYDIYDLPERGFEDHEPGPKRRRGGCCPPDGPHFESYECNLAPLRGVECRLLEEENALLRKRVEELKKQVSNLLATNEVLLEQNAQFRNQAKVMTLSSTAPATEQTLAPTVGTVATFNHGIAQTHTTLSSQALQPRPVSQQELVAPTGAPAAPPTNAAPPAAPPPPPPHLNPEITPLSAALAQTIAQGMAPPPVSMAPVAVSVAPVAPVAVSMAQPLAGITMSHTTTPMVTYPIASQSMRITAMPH
Experiment: EMSA

B1: -4.6 kb UCP1 probe (dsDNA)
DNA 1: TTTACCAAGTCCTTTCCACCGTGCAGGACGCACCATTCGGCAGCTTCCAGTTGTCTGGGAACTTCCAGTTGAAGGGATGA
DNA 2: TCATCCCTTCAACTGGAAGTTCCCAGACAACTGGAAGCTGCCGAATGGTGCGTCCTGCACGGTGGAAAGGACTTGGTAAA
  binding result: binds
